{"source": "paper doi:10.1101/2020.02.18.954917", "about": "(bioRxiv, 2020)", "proteins": {"B1": {"name": "ΔNterm-Them1 (Mus musculus Thioesterase superfamily member 1, thioesterase domains and START domain, residues 43-594) (enzyme, UniProt Q8VHQ9 43-594, looked up)", "chain": "YRNPTEVQMSQLVLPCHTNHRGELSIGQLLKWIDTTACLSAERHAGCPCVTASMDDIYFDHTISVGQVVNIKAKVNRAFNSSMEVGIQVVSEDLCSEKQWSVCKALATFVAHRELSKVKLKQVIPLTEEEKTEHGVAAERRRMRLVYADTIKDLLTHCVIQDDLDKDCSNMVPAEKTRVESVELVLPPHANHQGNTFGGQIMAWMENVATIAASRLCHAHPTLKAIEMFHFRGPSQVGDRLVLKAIVNNAFKHSMEVGVCVEAYRQEAETQRRHINSAFMTFVVLDKDDQPQKLPWIRPQPGEGERRYREASARKKIRLDRKYLVSCKQAEVALSVPWDPSNQVYLSYYNVSSLKTLMAKDNWVLSVEISEVRLYILEEDFLSFHLEMVVNVDAAQVFQLLSDLRRRPEWDKHYRSVELVQQVDEDDAIYHVISPALSGNTKPQDFVILASRRKPCDNGDPYVIALRSVTLPTHHETPEYQRGETLCSGFCLWREGDQMTKVSYYNQATPGFLNYVTTNVSGLSSEFYNTFKACESFLLDNRNDLAPSLQTL"}}, "target": "the molecule itself", "experiment": "SEC + AUC"}
{"protein": "B1", "values": [{"measurement": "stoichiometry N", "result": 3}]}
